Measured values reported in publication PMC5121632.
“And” between values parts separate entries of the source, which are not always exact repeats. Equal entries are not always repeated.

How the values were obtained:
[1] = test system: CT-TALE (dAvrBs3 TALE without periodic non-RVD mutations at repeat positions 4 and 32); assay: ITC; conditions: ITC: 50 mM Tris-HCl pH 8.0, 200 mM NaCl, 1 mM DTT, 5% glycerol; 15 and 25 °C; 96 μM DNA injected into TALE; single-site model
[2] = test system: VT-TALE (dAvrBs3 TALE with periodic non-RVD mutations at repeat positions 4 and 32); assay: ITC; conditions: ITC: 50 mM Tris-HCl pH 8.0, 200 mM NaCl, 1 mM DTT, 5% glycerol; 15 and 25 °C; 96 μM DNA injected into TALE; single-site model

| Sequence | Kd [1] | Kd [2] |
| --- | --- | --- |
| GGGTATACTCACACAATAGCTGGG (double strand) [EBEf] | 0.139 µM and 0.346 µM | 0.131 µM and 0.326 µM |
| GGGTATACTCACTGGGTGTGGGGG (double strand) [EBEn] | 0.109 µM and 0.305 µM | 0.117 µM and 0.262 µM |
